Results reported in paper PMC9924070 (Science Translational Medicine, 2021).

Assays:
[1] = target: T1, mouse IgG1 Fc-fused SARS-CoV-2 RBD (SARS-CoV-2, UniProt P0DTC2); test: BLI; details: both partners purified
[2] = target: T1, mouse IgG1 Fc-fused SARS-CoV-2 RBD; test: BLI; details: both partners purified; remark: listed apart in the source

| Binder | Kd [1] [nM] | koff [1] [s⁻¹] | kon [1] [M⁻¹ s⁻¹] | Kd [2] [nM] | koff [2] [s⁻¹] | kon [2] [M⁻¹ s⁻¹] |
| --- | --- | --- | --- | --- | --- | --- |
| humVHH/WT-Fc (Fc fusion, also called VHH72_h1-GS-hIgG1hinge-hIgG1Fc; construct 4) EVQLVESGGGLVQPGGSLRLSCAASGRTFSEYAMGWFRQAPGKEREFVATISWSGGSTYYTDSVKGRFTISRDNAKNTVYLQMNSLRPEDTAVYYCAAAGLGTVVSEWDYDYDYWGQGTLVTVSS | 0.1 | 0.00019 | 1.9e+06 | – | – | – |
| humVHH_S56A/LALAPG-Fc/Gen2 (Fc fusion) DVQLVESGGGLVQPGGSLRLSCAASGRTFSEYAMGWFRQAPGKEREFVATISWSGGATYYTDSVKGRFTISRDNAKNTVYLQMNSLRPEDTAVYYCAAAGLGTVVSEWDYDYDYWGQGTLVTVSS | – | – | – | 0.0408 | 6.16e-05 | 1.52e+06 |
| (humVHH)2/WT-Fc (Fc fusion) EVQLVESGGGLVQPGGSLRLSCAASGRTFSEYAMGWFRQAPGKEREFVATISWSGGSTYYTDSVKGRFTISRDNAKNTVYLQMNSLRPEDTAVYYCAAAGLGTVVSEWDYDYDYWGQGTLVTVSSGGGGSGGGGSGGGGSEVQLVESGGGLVQPGGSLRLSCAASGRTFSEYAMGWFRQAPGKEREFVATISWSGGSTYYTDSVKGRFTISRDNAKNTVYLQMNSLRPEDTAVYYCAAAGLGTVVSEWDYDYDYWGQGTLVTVSS | – | – | – | < 0.001 | < 1e-07 | 2.65e+06 |
| (humVHH_S56A)2/LALAPG-Fc/Gen2 (Fc fusion) DVQLVESGGGLVQPGGSLRLSCAASGRTFSEYAMGWFRQAPGKEREFVATISWSGGATYYTDSVKGRFTISRDNAKNTVYLQMNSLRPEDTAVYYCAAAGLGTVVSEWDYDYDYWGQGTLVTVSSGGGGSGGGGSGGGGSDVQLVESGGGLVQPGGSLRLSCAASGRTFSEYAMGWFRQAPGKEREFVATISWSGGATYYTDSVKGRFTISRDNAKNTVYLQMNSLRPEDTAVYYCAAAGLGTVVSEWDYDYDYWGQGTLVTVSS | – | – | – | < 0.001 | < 1e-07 | 2.48e+06 |
